Test [1] concerns the target His-tagged CRABP1 R29A (Mus musculus). The test can be described thus: pull-down; purified His-CRABP1 (WT or mutant, 5 uM) held on Ni-NTA resin as bait; 250 ug pre-cleared lysate of HEK293T cells expressing GFP-CaMKII (DMSO or ionomycin 10 uM, 10 min) as prey; 50 mM Tris pH 8.0, 150 mM NaCl, 0.2% NP-40, 20% glycerol, 200 mM imidazole, overnight at 4°C; Western blot with anti-GFP and anti-His; densitometry gives the CCI (n = 5). A general note: Immunoblotting shows a protein as a band on a membrane.

Test [2] has as its target His-tagged CRABP1 H94A (Mus musculus). The description is as above.
The target in test [3] is His-tagged CRABP1 T96A (Mus musculus). The test is described as above.
The target of test [4] is T1, 15N-labeled wild-type cellular retinoic acid-binding protein 1 (CRABP1) (Mus musculus, UniProt P62965 2-137, 15N-labeled).
T1 construct: also called 15N-labeled CRABP1; 15N WT CRABP1; source: expressed and purified as described in Park et al. (2019); SEC
T1 sequence (P62965 2-137): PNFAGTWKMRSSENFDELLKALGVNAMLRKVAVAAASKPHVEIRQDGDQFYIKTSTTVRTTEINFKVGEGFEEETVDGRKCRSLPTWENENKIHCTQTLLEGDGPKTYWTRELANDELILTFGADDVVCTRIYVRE
The test can be described thus: NMR titration; 15N-1H HSQC of 15N-labeled CRABP1 (19 uM) without and with CaMK-R peptide (200 uM); 30 mM d11-Tris-d3-acetate pH 6.2, 75 mM Na2SO4, 10 uM ZnCl2, 1 mM TCEP, 30°C. To be noted: both partners purified.

Experimental findings from PMC10562560, “Molecular basis for cellular retinoic acid-binding protein 1 in modulating CaMKII activation” (Frontiers in Molecular Biosciences, 2023) are described below.

Consider “GFP-CaMKII beta, inactive (from vehicle-treated HEK293T cells) (from UniProt P08413 1-542) (cell lysate)”, for which the CRABP1–CaMKII Complex Index (CCI; ratio of inactive to active CaMKII pulled down) in test [1] is 1.
Take “GFP-CaMKII beta, inactive (from vehicle-treated HEK293T cells) (from UniProt P08413 1-542) (enzyme)”: the CRABP1–CaMKII Complex Index (CCI; ratio of inactive to active CaMKII pulled down) in test [2] and in test [3] was 1 each time.

B1: CaMK-R peptide (29-residue peptide, residues 281–309 of the regulatory segment of CaMKII alpha) (peptide, UniProt P11798 281-309, looked up)
peptide: MHRQETVDCLKKFNARRKLKGAILTTMLA
notes: also called CAMKII-R; CaMKII peptide; source: synthetic peptide (University of Minnesota Peptide Synthesis Services)
B1: in test [4], the binding result is given as “binds”.
